Article PMC6555819, “Comprehensive study of nuclear receptor DNA binding provides a revised framework for understanding receptor specificity”

B1: NRC3_wobSeed74_DR3_T9A_o1 (dsDNA)
DNA 1: GCTCTAGTAGGTCACGGAGGTCACACACGACGGGTAGCGATTGACAGCGTAGAATGAAGG
DNA 2: CCTTCATTCTACGCTGTCAATCGCTACCCGTCGTGTGTGACCTCCGTGACCTACTAGAGC
B2: NRC3_random_hg19_478_o1 (dsDNA)
DNA 1: GCATCAGCCATTTGGTATGCAAGTAGATTAGAAGCCGCGATTGACAGCGTAGAATGAAGG
DNA 2: CCTTCATTCTACGCTGTCAATCGCGGCTTCTAATCTACTTGCATACCAAATGGCTGATGC
B3: NRC3_random_hg19_355_o1 (dsDNA)
DNA 1: GCTCACCGTGTTAGCCAGGATGGTCTCAATCTCCTGGCGATTGACAGCGTAGAATGAAGG
DNA 2: CCTTCATTCTACGCTGTCAATCGCCAGGAGATTGAGACCATCCTGGCTAACACGGTGAGC
B4: NRC3_wobSeed109_DR4_C7A_o1 (dsDNA)
DNA 1: GCCGTCAAAGGTCATAGGAGGTCAGTGAAGACAGATGCGATTGACAGCGTAGAATGAAGG
DNA 2: CCTTCATTCTACGCTGTCAATCGCATCTGTCTTCACTGACCTCCTATGACCTTTGACGGC
B5: NRC3_wobSeed1_DR0_T8G_o1 (dsDNA)
DNA 1: GCCAAACGAGGTCAAGGTCAAAGTCGGTTTGTGCCAGCGATTGACAGCGTAGAATGAAGG
DNA 2: CCTTCATTCTACGCTGTCAATCGCTGGCACAAACCGACTTTGACCTTGACCTCGTTTGGC
B6: NRC3_wobSeed99_DR4_A12T_o1 (dsDNA)
DNA 1: GCTCTCGGAGGTCACGAAAGGTCAGAGCTCGACATCGCGATTGACAGCGTAGAATGAAGG
DNA 2: CCTTCATTCTACGCTGTCAATCGCGATGTCGAGCTCTGACCTTTCGTGACCTCCGAGAGC
B7: NRC3_wobSeed29_DR1_T20C_o1 (dsDNA)
DNA 1: GCGCTTACGGGTCAAAGGTCATAGCATGAATAGAATGCGATTGACAGCGTAGAATGAAGG
DNA 2: CCTTCATTCTACGCTGTCAATCGCATTCTATTCATGCTATGACCTTTGACCCGTAAGCGC
B8: NRC3_wobSeed45_DR1_A20C_o1 (dsDNA)
DNA 1: GCTGTCAAAGTTCAAAGGTCACGTAAGTATCCACACGCGATTGACAGCGTAGAATGAAGG
DNA 2: CCTTCATTCTACGCTGTCAATCGCGTGTGGATACTTACGTGACCTTTGAACTTTGACAGC
B9: NRC3_wobSeed37_DR1_G22T_o1 (dsDNA)
DNA 1: GCCGTCCAAGGTCAAAGGTCATTGAAGAGATGACGGGCGATTGACAGCGTAGAATGAAGG
DNA 2: CCTTCATTCTACGCTGTCAATCGCCCGTCATCTCTTCAATGACCTTTGACCTTGGACGGC
B10: NRC3_random_hg19_67_o1 (dsDNA)
DNA 1: GCCTGGCTGGGCATGGTGGCTCATGCCTGTAATCCCGCGATTGACAGCGTAGAATGAAGG
DNA 2: CCTTCATTCTACGCTGTCAATCGCGGGATTACAGGCATGAGCCACCATGCCCAGCCAGGC
B11: NRC3_random_hg19_204_o1 (dsDNA)
DNA 1: GCGCCTGCATCTCCACATCCATGGAGTCCTGCTGAGGCGATTGACAGCGTAGAATGAAGG
DNA 2: CCTTCATTCTACGCTGTCAATCGCCTCAGCAGGACTCCATGGATGTGGAGATGCAGGCGC

Legend:
THRa:RXRa = THRa:RXRa (Homo sapiens, UniProt P10827;P19793 full;full); experiment: no ligand; PBM; 90 nM : 90 nM RXRa; PBS pH 7.4, 2% milk, 0.02% Triton X-100, 1 mM DTT, BSA, 0.4 mg/ml salmon testes DNA; conditions: tags: His kept;His cleaved; copies: 1;1; label: surface-attached array probe
RARa:RXRa = RARa:RXRa (Homo sapiens, UniProt P10276;P19793 full;full); experiment: no ligand; PBM; 270 nM : 90 nM RXRa; PBS pH 7.4, 2% milk, 0.02% Triton X-100, 1 mM DTT, BSA, 0.4 mg/ml salmon testes DNA; conditions: tags: His kept;His cleaved; copies: 1;1; label: surface-attached array probe
Sequence of RARa:RXRa (P10276 whole entry, chain 1 of 2): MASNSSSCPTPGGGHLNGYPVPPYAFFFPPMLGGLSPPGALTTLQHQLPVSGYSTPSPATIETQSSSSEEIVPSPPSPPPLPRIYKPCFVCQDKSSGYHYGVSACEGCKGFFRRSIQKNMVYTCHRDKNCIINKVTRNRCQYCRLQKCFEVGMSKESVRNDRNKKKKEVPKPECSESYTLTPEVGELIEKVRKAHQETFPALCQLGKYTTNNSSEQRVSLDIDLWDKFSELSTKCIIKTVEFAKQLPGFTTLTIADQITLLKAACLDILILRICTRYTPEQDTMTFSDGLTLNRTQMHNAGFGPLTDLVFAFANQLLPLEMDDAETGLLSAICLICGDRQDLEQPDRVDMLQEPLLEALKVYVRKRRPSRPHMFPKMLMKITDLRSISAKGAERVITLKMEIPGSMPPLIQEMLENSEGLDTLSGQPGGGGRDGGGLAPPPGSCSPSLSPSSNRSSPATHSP
Sequence of RARa:RXRa (P19793 whole entry, chain 2 of 2): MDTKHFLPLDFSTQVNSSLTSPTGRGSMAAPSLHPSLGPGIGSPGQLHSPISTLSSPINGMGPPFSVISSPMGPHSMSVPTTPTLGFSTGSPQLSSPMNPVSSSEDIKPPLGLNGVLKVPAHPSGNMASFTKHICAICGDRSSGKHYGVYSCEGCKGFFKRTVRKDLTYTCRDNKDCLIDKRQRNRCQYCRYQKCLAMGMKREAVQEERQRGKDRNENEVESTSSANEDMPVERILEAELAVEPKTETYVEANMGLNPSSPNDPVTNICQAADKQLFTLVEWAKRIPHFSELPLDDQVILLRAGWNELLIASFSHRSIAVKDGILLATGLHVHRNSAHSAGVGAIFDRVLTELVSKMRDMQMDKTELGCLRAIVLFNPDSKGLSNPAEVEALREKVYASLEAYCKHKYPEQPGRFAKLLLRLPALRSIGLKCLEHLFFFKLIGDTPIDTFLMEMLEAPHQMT
Summary of the method: (§1)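 Scanned fluorescence from custom Agilent 4×180K protein-binding microarrays was regression-normalized. Binding z-scores use random background probes as reference. Ligand-free nuclear receptor dimers were incubated on the arrays for 1 h and detected with antibodies against each partner (one per run).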

PXR:RXRa = PXR:RXRa (Homo sapiens, UniProt O75469;P19793 full;full); experiment: as above; conditions: tags: His kept;His cleaved; copies: 1;1; label: surface-attached array probe
Summary of the method: as §1

VDR:RXRa = VDR:RXRa (Homo sapiens, UniProt P11473;P19793 full;full); experiment: as above; conditions: tags: His kept;His cleaved; copies: 1;1; label: surface-attached array probe
Sequence of VDR:RXRa (P11473 whole entry, chain 1 of 2): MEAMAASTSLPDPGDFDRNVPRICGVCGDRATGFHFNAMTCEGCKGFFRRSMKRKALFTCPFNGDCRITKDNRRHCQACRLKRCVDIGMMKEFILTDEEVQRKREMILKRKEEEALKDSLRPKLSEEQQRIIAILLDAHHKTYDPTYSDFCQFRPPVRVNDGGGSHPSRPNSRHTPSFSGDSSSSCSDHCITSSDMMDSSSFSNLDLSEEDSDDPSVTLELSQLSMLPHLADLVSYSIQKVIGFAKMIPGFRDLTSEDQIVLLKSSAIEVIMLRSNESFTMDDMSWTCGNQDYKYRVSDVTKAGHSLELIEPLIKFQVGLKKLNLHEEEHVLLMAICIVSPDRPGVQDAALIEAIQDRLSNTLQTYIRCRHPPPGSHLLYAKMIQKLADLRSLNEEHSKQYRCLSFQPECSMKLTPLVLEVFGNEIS
Sequence of VDR:RXRa (P19793 whole entry, chain 2 of 2): as the sequence (P19793 whole entry, chain 2 of 2) above
Summary of the method: as §1

RARb:RXRa = RARb:RXRa (Homo sapiens, UniProt P10826;P19793 full;full); experiment: as above; conditions: tags: His kept;His cleaved; copies: 1;1; label: surface-attached array probe
Summary of the method: as §1

PPARg:RXRa = PPARg:RXRa (Homo sapiens, UniProt P37231;P19793 full;full); experiment: no ligand; PBM; 180 nM : 90 nM RXRa; PBS pH 7.4, 2% milk, 0.02% Triton X-100, 1 mM DTT, BSA, 0.4 mg/ml salmon testes DNA; conditions: tags: His kept;His cleaved; copies: 1;1; label: surface-attached array probe
Sequence of PPARg:RXRa (P37231 29-505, chain 1 of 2): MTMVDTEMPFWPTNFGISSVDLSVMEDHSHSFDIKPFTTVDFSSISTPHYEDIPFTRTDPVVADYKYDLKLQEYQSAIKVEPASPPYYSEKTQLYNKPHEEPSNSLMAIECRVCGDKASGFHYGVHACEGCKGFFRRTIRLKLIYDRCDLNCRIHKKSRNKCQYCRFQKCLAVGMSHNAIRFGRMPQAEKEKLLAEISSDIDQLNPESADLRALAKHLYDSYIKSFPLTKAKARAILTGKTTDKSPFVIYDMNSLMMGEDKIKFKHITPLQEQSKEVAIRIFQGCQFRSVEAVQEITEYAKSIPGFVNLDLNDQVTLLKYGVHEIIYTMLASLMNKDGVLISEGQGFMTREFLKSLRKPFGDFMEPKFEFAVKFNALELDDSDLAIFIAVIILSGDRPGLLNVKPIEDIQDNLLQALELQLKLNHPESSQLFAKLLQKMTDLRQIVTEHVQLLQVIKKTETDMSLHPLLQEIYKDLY
Sequence of PPARg:RXRa (P19793 whole entry, chain 2 of 2): as the sequence (P19793 whole entry, chain 2 of 2) above
LXRa:RXRa = LXRa:RXRa (Homo sapiens, UniProt Q13133;P19793 full;full); experiment: no ligand; PBM; 270 nM : 90 nM RXRa; PBS pH 7.4, 2% milk, 0.02% Triton X-100, 1 mM DTT, BSA, 0.4 mg/ml salmon testes DNA; conditions: tags: His kept;His cleaved; copies: 1;1; label: surface-attached array probe
Sequence of LXRa:RXRa (Q13133 whole entry, chain 1 of 2): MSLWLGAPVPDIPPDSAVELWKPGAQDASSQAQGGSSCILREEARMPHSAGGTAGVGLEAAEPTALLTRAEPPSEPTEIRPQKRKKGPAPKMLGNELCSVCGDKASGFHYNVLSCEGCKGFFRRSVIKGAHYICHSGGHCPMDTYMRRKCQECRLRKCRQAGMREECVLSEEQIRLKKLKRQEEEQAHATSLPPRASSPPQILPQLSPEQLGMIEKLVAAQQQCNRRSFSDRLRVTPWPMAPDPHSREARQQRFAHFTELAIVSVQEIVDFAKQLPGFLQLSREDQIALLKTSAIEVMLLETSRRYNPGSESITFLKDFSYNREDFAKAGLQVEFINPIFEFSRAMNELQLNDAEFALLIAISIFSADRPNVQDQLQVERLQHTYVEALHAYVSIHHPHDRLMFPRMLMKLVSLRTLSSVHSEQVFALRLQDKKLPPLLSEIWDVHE
Sequence of LXRa:RXRa (P19793 whole entry, chain 2 of 2): as the sequence (P19793 whole entry, chain 2 of 2) above
Summary of the method: as §1

PPARa:RXRa = PPARa:RXRa (Homo sapiens, UniProt Q07869;P19793 full;full); experiment: as above; conditions: tags: GST kept;His cleaved; copies: 1;1; label: surface-attached array probe
Summary of the method: as §1

RXRa = RXRa (Homo sapiens, UniProt P19793); experiment: no ligand; PBM; 180 nM; PBS pH 7.4, 2% milk, 0.02% Triton X-100, 1 mM DTT, BSA, 0.4 mg/ml salmon testes DNA; conditions: tags: His cleaved; chain copies: 2; label: surface-attached array probe
FXR:RXRa = FXR:RXRa (Homo sapiens, UniProt Q96RI1;P19793 full;full); experiment: no ligand; PBM; 270 nM : 90 nM RXRa; PBS pH 7.4, 2% milk, 0.02% Triton X-100, 1 mM DTT, BSA, 0.4 mg/ml salmon testes DNA; conditions: tags: His kept;His cleaved; copies: 1;1; label: surface-attached array probe
Summary of the method: as §1

RARg:RXRa = RARg:RXRa (Homo sapiens, UniProt P13631;P19793 full;full); experiment: as above; conditions: tags: His kept;His cleaved; copies: 1;1; label: surface-attached array probe
Summary of the method: as §1

LXRb:RXRa = LXRb:RXRa (Homo sapiens, UniProt P55055;P19793 full;full); experiment: as above; conditions: tags: His kept;His cleaved; copies: 1;1; label: surface-attached array probe
Sequence of LXRb:RXRa (P55055 whole entry, chain 1 of 2): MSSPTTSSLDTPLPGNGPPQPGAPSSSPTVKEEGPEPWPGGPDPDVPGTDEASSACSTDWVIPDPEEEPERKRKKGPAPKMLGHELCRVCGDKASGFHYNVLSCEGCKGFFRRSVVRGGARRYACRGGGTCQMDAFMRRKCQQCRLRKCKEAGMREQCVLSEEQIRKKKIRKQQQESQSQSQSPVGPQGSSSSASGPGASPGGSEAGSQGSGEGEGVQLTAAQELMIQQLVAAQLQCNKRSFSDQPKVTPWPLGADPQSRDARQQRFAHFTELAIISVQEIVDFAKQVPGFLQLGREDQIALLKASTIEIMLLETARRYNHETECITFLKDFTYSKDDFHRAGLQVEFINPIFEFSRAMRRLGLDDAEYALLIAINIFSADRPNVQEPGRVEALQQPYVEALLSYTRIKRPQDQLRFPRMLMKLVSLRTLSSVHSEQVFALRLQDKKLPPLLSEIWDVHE
Sequence of LXRb:RXRa (P19793 whole entry, chain 2 of 2): as the sequence (P19793 whole entry, chain 2 of 2) above
Summary of the method: as §1

| Binder | binding signal (THRa:RXRa) | binding signal (RARa:RXRa) | binding signal (PXR:RXRa) | binding signal (VDR:RXRa) | binding signal (RARb:RXRa) | binding signal (PPARg:RXRa) | binding signal (LXRa:RXRa) | binding signal (PPARa:RXRa) | binding signal (RXRa) | binding signal (FXR:RXRa) | binding signal (RARg:RXRa) | binding signal (LXRb:RXRa) |
| --- | --- | --- | --- | --- | --- | --- | --- | --- | --- | --- | --- | --- |
| B1 | 4.93 PBM z-score against 500 random probes | 7.07 PBM z-score against 500 random probes | 6.39 PBM z-score against 500 random probes | 7.91 PBM z-score against 500 random probes | 5.43 PBM z-score against 500 random probes | 9.93 PBM z-score against 500 random probes | – | – | – | – | – | – |
| B2 | -0.66 PBM z-score against 500 random probes | -0.34 PBM z-score against 500 random probes | – | – | – | 0.2 PBM z-score against 500 random probes | -0.84 PBM z-score against 500 random probes | -0.63 PBM z-score against 500 random probes | – | – | – | – |
| B3 | -0.48 PBM z-score against 500 random probes | -0.62 PBM z-score against 500 random probes | – | – | – | -0.61 PBM z-score against 500 random probes | – | 0.1 PBM z-score against 500 random probes | -0.34 PBM z-score against 500 random probes | – | – | – |
| B4 | 5.57 PBM z-score against 500 random probes | 7.3 PBM z-score against 500 random probes | 7.51 PBM z-score against 500 random probes | 7.29 PBM z-score against 500 random probes | 6.2 PBM z-score against 500 random probes | – | 8.48 PBM z-score against 500 random probes | 7.01 PBM z-score against 500 random probes | 8.51 PBM z-score against 500 random probes | 8.92 PBM z-score against 500 random probes | 8.29 PBM z-score against 500 random probes | 7.17 PBM z-score against 500 random probes |
| B5 | 4.94 PBM z-score against 500 random probes | 7.18 PBM z-score against 500 random probes | 6.83 PBM z-score against 500 random probes | 6.53 PBM z-score against 500 random probes | 5.8 PBM z-score against 500 random probes | – | 6.82 PBM z-score against 500 random probes | 6.72 PBM z-score against 500 random probes | 8.3 PBM z-score against 500 random probes | 8.73 PBM z-score against 500 random probes | 7.53 PBM z-score against 500 random probes | 6.16 PBM z-score against 500 random probes |
| B6 | 5.45 PBM z-score against 500 random probes | 7.86 PBM z-score against 500 random probes | 7.53 PBM z-score against 500 random probes | 6.9 PBM z-score against 500 random probes | 6.17 PBM z-score against 500 random probes | – | 8.32 PBM z-score against 500 random probes | 6.75 PBM z-score against 500 random probes | 8.83 PBM z-score against 500 random probes | 8.33 PBM z-score against 500 random probes | 8.59 PBM z-score against 500 random probes | 7.35 PBM z-score against 500 random probes |
| B7 | 4.82 PBM z-score against 500 random probes | 9.33 PBM z-score against 500 random probes | 7.5 PBM z-score against 500 random probes | 7.18 PBM z-score against 500 random probes | 5.71 PBM z-score against 500 random probes | 13.1 PBM z-score against 500 random probes | 7.26 PBM z-score against 500 random probes | 7.49 PBM z-score against 500 random probes | 10.8 PBM z-score against 500 random probes | 8.57 PBM z-score against 500 random probes | 9.01 PBM z-score against 500 random probes | 7.5 PBM z-score against 500 random probes |
| B8 | 5.33 PBM z-score against 500 random probes | 9.47 PBM z-score against 500 random probes | 8.16 PBM z-score against 500 random probes | 7.65 PBM z-score against 500 random probes | 6.42 PBM z-score against 500 random probes | 11.8 PBM z-score against 500 random probes | 8.34 PBM z-score against 500 random probes | 7.56 PBM z-score against 500 random probes | 11 PBM z-score against 500 random probes | 9.44 PBM z-score against 500 random probes | 9.56 PBM z-score against 500 random probes | 7.9 PBM z-score against 500 random probes |
| B9 | 5.12 PBM z-score against 500 random probes | 9.26 PBM z-score against 500 random probes | 7.7 PBM z-score against 500 random probes | 7.41 PBM z-score against 500 random probes | – | 12.1 PBM z-score against 500 random probes | 7.79 PBM z-score against 500 random probes | – | 11.1 PBM z-score against 500 random probes | 8.93 PBM z-score against 500 random probes | 9.4 PBM z-score against 500 random probes | 7.46 PBM z-score against 500 random probes |
| B10 | -0.95 PBM z-score against 500 random probes | -0.94 PBM z-score against 500 random probes | – | – | – | -1.37 PBM z-score against 500 random probes | – | – | – | – | – | – |
| B11 | -0.86 PBM z-score against 500 random probes | -0.76 PBM z-score against 500 random probes | -0.93 PBM z-score against 500 random probes | – | – | 0.07 PBM z-score against 500 random probes | – | – | -0.59 PBM z-score against 500 random probes | – | – | – |
